The data set in a line: soluble on expression in E. coli; label from the status in PepcDB or PDB records.
On to “MKVLTVVIPCYNSAEYMDRAIESLLIGDEELEILIVNDGSMDNTSIIADEYEKKYPNTIRVIHKENGGHGDAINTGLKHSKGVYFKVLDSDDWFDKASLKKVLEVLKNMIKDSKSLDMLISNYVYENFSINKSRSINYKGAMPKEKIFTWDSLGHLKSSQNILMHSVIYRTELLRECNLDLPKHTFYVDNIFVYKPLPYVKTMYYLDVDLYRYFIGREDQSVNEKVMIKRIDQQIKVTKILIDCYNPMLLNCKKLRKYMVKYLVMMMTVSTVLLIKDNTEQSLNKKRELWSYLHSKNRKLYFEVNKSFLGLLIQIKGFVGRKIILLGYSLSRKVFGFNLEHHHHHH”, for which the “soluble on expression in E. coli” value was “not soluble”. “MSLALFYGRKITVAGISKRGSETALEISEKLSEKGLAVKCYSRSNLKGCNTYIGSTQNFVLSEVRKSDVLVLVMSLGGAVRIIEKASILKEEGIAVIVVDDYGRYAIPIVNGHSGSANVFARLISELIGSEYIITDAVELNGLMSVEEMSRRLYCTIANPECVLKINTALANGDPVFARNESSKRKHAFEMIKYPWKTYSRSDDAKIIITDRPGEGGEICYLVPDDISVGIGFTGKADPYNIKKRIEEVLLSLGLGYDDVNCVSSLRYNKFLSELIKDNGTEFRTFSADDLKSVDVSLLSHISEEAEEKLGIPGSAEPSALLSLGPGSRIIYPFTKFDHSMTISVASRREGHHHHHH”: the “soluble on expression in E. coli” value is given as “soluble”.

For the sequence “MGSDKIHHHHHHMLTTCKSVLKLPYLEKIKVVAGEKGLNRIITWVQVVEYPEYSKWLKGGELILISGIAIKNNINSLVNFIRDINSRSLSGIVISIGPYIKEIPKEVIEIGNQLDFPIFEIPFEVKFIDVSQSICKAIFANKVNQESMENFMKDIIFRDFTFSEDILSRAVAYGYNPKTKYISFVVELHNEKDMLECDLKTKQYIEQIVIEVLGEWNKRSIHIMQYNSIILMLPKNEKRTIKNIAMNIIEEIISKAKNTSVNIGVGGEFSELRDFKISVSEAHRCLKVLKLNNDNNTVISYDELGIYKLFFQMDNLEEMKKFYLDVLKKLIDYDSKNTTELMNTLEMYIKESTNINRTAEKLFIHRNTLKYRIRRIEEITKCSLKDVNVLFNFDTALKIKKFLTMENAV”, the “soluble on expression in E. coli” value is “not soluble”. For “GMEGLVMNTRRALFADWRVREAMLLAFDFDLINRTLTGGAEPRIASYFSNSALGMEAGAPATGRERALLEPFAADLLPGTLDGYALPATHGASNRGNLRKAARLLSEAGWRIEDGMLEGPGGTPFAFEILLPQGADAMIAASIIYRQALTRLGISARITTVDPAQFKQRVDNQDFDMTSFLRSLTLSPGNEQLLYWSAEDKDLPGSRNLMGMESPAAEAVIRHMLATDDAEEFQASVRALDRVLTAGRYVIPMWYSR” the value was “not soluble”.

Turning to “MGSDKIHHHHHHMSNRKINPFVVTGKIEPEYFCDRESESARLIKSIANGNNSVVISPRRMGKTGLIQFCYDKEEIGRNYYTFFIDILHTSSLREFTYLLGREIYETLLPQSKKMINLFVRTLKSISGRFGFDPVSGMPTFGIELGDIEHPEYTLEEIFRYLADADRPCIVAIDEFQQIAKYPEKNIEALLRTHIQKLRNCNFIFAGSERHMMQEMFASAARPFYHSADMLELKAIEADVYIPFIVGHFEKRDRSISPDDAARVYRLFKGHTFYIQKTFNEAFADTPEGEVCTPEIIESAIDNMIASNDTIFREILSNIPEKQKTLLYAIAKEGEAERITSTGFIKRHNLISASSVQSAANKLLDKDIITEINKVYCVTDKLFAMWINTLYGTKDFWRMTSRP”, the “soluble on expression in E. coli” value is listed as “not soluble”. For “MKFINIVGTTASGKTTFARQLALKLNLTHIEMDDLFWLDGWQETPDDEFFLKLKNKMDIAKDGWVLDGNYSRTLHLKLDKLDTMIWLDYSFTLNFYRSVKRAISRIITKEPLWENSNNYESFKQSFLSKNSIILWMINHYAKNRKKYLNMMHDPQYRHIQFIRLTSPKQAKVFLDSL” the value was “not soluble”. The result for “MRAMYDLLKQKADVWDLFTRKKEYQPSKLDEHGRFFFTEEDLKNASSPEVSRYLVENGLKVEFPENKTFAVCLTHDMDDIYPPFSHSLLSSVSCLKSLDFRGLTAPFLWRFKGPEYSPYLNFSDIMDLEEGFGAKSSFYFLASREDPVRFRYDIEDLENLLGDISDRGWEAGLHGGYYSYDNLEALNNEKKSLEKVLGKKVLGFRNHYLRFKTPETWELLADAGFGYDSTFGYSELAGFRNGMCHPFKPYNLNKEREINILEIPLTVMDVALFKASSSFEEAWRCTKDLIDTAAGLNGVITLLWHNFVFGCSFRKDWIKLYEKALQYCSEKGAWITSGEEIYRWWENGAMAGDPLEHHHHHH” reads “soluble”; that for “MDSNDLEASFTSRLPPEIVAALKRKSSRDPNSRFPRKLHMLLTYLASNPQLEEEIGLSWISDTEFKMKKKNVALVMGIKLNTLNVNLRDLAFEQLQHDKGGWTQWKRSGFTRNSVFEDPTQNDSPMHHHHHH”, “soluble”. For “MAALRVPLSQQQLEQLKANKKWGEYVEAQAGQKYEHFTSPYKQSMLTVKEWIMPQGLVIYVRTDDGTYPARVVNAGPDNICVRIVKANKSDPEPETQISYDQVIKSTEVLKMEPLKFKWIRKKTDNLYSIEAFQNLSGFFNKKVFELLKKGDFMEYQHDDEPWKCTIVEIIENHNGLIFIRNGLFVRCVHMFSPFCHELGWADKLKETNDERAAGMTYKILIKLENDRDQRVIVDRHIFRNNTISPHRFQDLQVLVYLEEDHFYLAHVKCKTRKTGLTDSYFFQISRGTELVRDSLLSDNKMPVQFHLNDARIFGYRDLERLHFPIDLPDGVQKIEGESNVDAYIRTYCLTDKEKARVPRLNESEKRAMFDRKILSNEIGVHMKHGAMLRDSKFNPTAGSLTPWAGTKCAEVSWFLPSSGRTRNRRADLLAARVVKYTEHIAHLYVARLDKTIYMHVADPRLHPAGFADGVNLPIEYSDAFAKDADIEIQISQLEETLDNLACEQDSTKDQN” the value was “not soluble”; for “MSDEREVAEAATGEDASSPPPKTEAASDPQHPAASEGAAAAAASPPLLRCLVLTGFGGYDKVKLQSRPAAPPAPGPGQLTLRLRACGLNFADLMARQGLYDRLPPLPVTPGMEGAGVVIAVGEGVSDRKAGDRVMVLNRSGMWQEEVTVPSVQTFLIPEAMTFEEAAALLVNYITAYMVLFDFGNLQPGHSVLVHMAAGGVGMAAVQLCRTVENVTVFGTASASKHEALKENGVTHPIDYHTTDYVDEIKKISPKGVDIVMDPLGGSDTAKGYNLLKPMGKVVTYGMANLLTGPKRNLMALARTWWNQFSVTALQLLQANRAVCGFHLGYLDGEVELVSGVVARLLALYNQGHIKPHIDSVWPFEKVADAMKQMQEKKNVGKVLLVPGPEKEN”, “soluble”. On to “DRTTYYSILGLTSNATSSEVHKSYLKLARLLHPDKTKSDKSEELFKAVVHAHSILTDEDQKLRYDRDLKIKGLHTYQPKK”, for which the “soluble on expression in E. coli” value is listed as “not soluble”.

As for “GGKDYPFARFNKTVQVPVYSEQEYQLYLHDDAWTKAETDHLFDLSRRFDLRFVVIHDRYDHQQFKKRSVEDLKERYYHICAKLANVRAVPGTD”, the “soluble on expression in E. coli” value is recorded as “soluble”. The result for “MLSAAAFAADKVVKLPKPNLNRTGTVMKALSERQSTREYASKALTLADLSDLLWAANGINRSDAGKRTAPSAMNKQDVDVYVILSEGSYLYDAKNHQLNLIAEGDYRGAVAGGQAFVKTAPVSLVLISDVSRFGDAQKIQNQLMGAMDAGIVSQNISIFCSAAKLATVPRASMDAAQLKKVLKLKDSQIPMMNHPVGYFK” reads “not soluble”; that for “MQGPPRFGRLGGGAARRAARAQAPLYQEQPNYRDLVELAAEQARQAAAAPPPQLVPMLRDPIPIRFHRRDELLDRFGMDLGVAHRQELPNERIELAEARDQLAEQQRRALEAQRDQLARHNALADDLRARRERIVQEARAHARRADARDARLEAAAAADRRERFLQEAQEADARRAADGDARAELGEQLRALEAAVAGLPEAQAPQLRDRRARFVARLRARRAADAQAGALANEQRALEARLEGDFADLRAAEGRLLHPPPPQVCEFFFFAHFLLKMRKNLENLSQKLRFEVENWKIPLKFEICEILWKNHENCSKKR”, “not soluble”.

On to “GSKESPLHGTQNTINKRTQPTFGFTVNWKFSESTTVFTGQCFIDRNGKEVLKTMWLLRSSVNDIGDDWKATRVGIMIFTRLRTQKEGGSGGSARKCSLTGKWTNDLGSNMTIGAVNSRGEFTGTYITAVT”, for which the “soluble on expression in E. coli” value is listed as “soluble”.

“MNTTPFPALSAETLLAVNTVGQWLAQNDFSGEQPYSSDCVVLAGNAVIPTIDAACRIAKAQGVPLLISGGIGHSTPFLYAVIARHPRYHTIRTSGRAEAAILADIANQFWHIPAEKIWLEDRSTNCGENARFSCALIRQAKENINTAIVVQDPTMQRRTIAAFRRVTNDDTDAPRWLSFPGFVPVLRHLNDGTRFANVEEGIWTVERYLSLIAGELPRLRDDETGYGPRGKDFIIHVDIPRDIENAWQVLQADTTLRSALGQRALRLEHHHHHH”: the “soluble on expression in E. coli” value is “soluble”.

In the case of “MEPRFAGYAQKVRDSFARQPVMATLGARIDTLLPGRVELCMPYDRALTQQHGFLHAGIVSTVLDSACGYAAFSLMEEEAAVLTVEFKVNFLNPAEGERFAFRAEVVKPGRTLTVATATAYAFRDGEERAIATMTATLMALIGLEHHHHHH”, the “soluble on expression in E. coli” value was “soluble”. For “MESSIKVGISSCVLGERVRFDSGHKVSNFVTKELSNYFDFVSVCPEVGVGMPVPRPTIRLISNEERIALVETKNPDNDHTDNMLTYSANKVDELQNEQLCGYIVCAKSPTCGMERVKVYSKNNAAKEGVGLYTKTLMEKMPWLPVEEDGRLNDPVLKENFITRIYCLNDFYESMAGEPTRGKIIDFHSRYKLTLMAHHPESYRSLGRLVADVASYEIDEFYREYRLGLMTALSNRASRKNNTNVLMHLQGYFKRSLNKDEKEELATVIQDYRTGTLPLLAPLTLIKHYLNAYPDEYLQRQKFLEPHPQEMRLRYGL” the value was “not soluble”; for “MRIARRAVEEWVEHGRRLDVEAGGKLGRPGAAFVTLERRSGDGWELRGCIGVVRPVLPLVEAVVTAAVDAASSDPRFEPLSREELDRVRVEVTVLGSMEPLPKKPHERPALVEVGLHGLYVEKPPYAGLLLPQVAVDEGWDPILFLTWACIKAGLPGTCWLREDVEIYRFRAAVWRETEPRGPVVRRDLAREAAAKGVNARVSTHISSCKSLEHHHHHHTHISSCKSLEHHHHHHTHISSCKSLEHHHHHHTHISSCKSLEHHHHHHTHISSCKSLEHHHHHHTHISSCKSLEHHHHHHTHISSCKSLEHHHHHH”, “not soluble”.

The record behind these values is the DeepSol protein solubility set.
